Patent publication US11946041B2, “Modification of polypeptides” (BicycleRD Limited, priority 2017, dated 2024)
Entries after “also recorded” stand apart in the source; their conditions may differ. Each block holds one molecule with its values, some of them ahead of it.

Experiments:
[1] = molecular target: T1, MT1-MMP hemopexin domain (Homo sapiens, UniProt P50281); assay: MMP-14 FP competition binding between peptide families
T1 construct: Human MMP-14 PEX protein at 71.1 μM monomer
Experimental: FIG. 6 illustrates an analysis of MT-MMP binding ligands. A: MMP-14 FP direct binding in cell-based selections; 1 nM tracer, 60 min data. 17-98-Sar6-k(FI)-and-17-99-Sar6-k(FI)-bind with Kds of 354 nM and 501 nM respectively. B: competition binding with several combinations of peptides, both fluorescein-labelled or native, from soluble and cell based selections.
FIG. 7 illustrates the competition profile between peptide ligands isolated in this example.
• Human MMP-14 PEX protein at 71.1 μM monomer (previously 77.1 μM) (T-017-011), stored in fridge (4/7/14) • Peptides as described in Results section
Method: • Prepare assay buffer: 20 mM HEPES, 150 mM NaCl, 1 mM CaCl2), 0.1% Tween20 (pH 7.6). Buffer was filtered before use to remove precipitate. • Method according to Example 3 with tracer at 1 nM and MMP-14 PEX at concentrations detailed in the graphs • 60 min data analysed • Results are shown in FIG. 6.

[2] = molecular target: T2, EphA3 (Homo sapiens, UniProt P29320); assay: EphA3 FP competition assay with 67-10-05 as labelled tracer; type: binding; details: tracer 67-10-05
T2 construct: So far all selections have been performed with soluble EphA3 ecto domain
T2 sequence (P29320 21-541 limits assumed): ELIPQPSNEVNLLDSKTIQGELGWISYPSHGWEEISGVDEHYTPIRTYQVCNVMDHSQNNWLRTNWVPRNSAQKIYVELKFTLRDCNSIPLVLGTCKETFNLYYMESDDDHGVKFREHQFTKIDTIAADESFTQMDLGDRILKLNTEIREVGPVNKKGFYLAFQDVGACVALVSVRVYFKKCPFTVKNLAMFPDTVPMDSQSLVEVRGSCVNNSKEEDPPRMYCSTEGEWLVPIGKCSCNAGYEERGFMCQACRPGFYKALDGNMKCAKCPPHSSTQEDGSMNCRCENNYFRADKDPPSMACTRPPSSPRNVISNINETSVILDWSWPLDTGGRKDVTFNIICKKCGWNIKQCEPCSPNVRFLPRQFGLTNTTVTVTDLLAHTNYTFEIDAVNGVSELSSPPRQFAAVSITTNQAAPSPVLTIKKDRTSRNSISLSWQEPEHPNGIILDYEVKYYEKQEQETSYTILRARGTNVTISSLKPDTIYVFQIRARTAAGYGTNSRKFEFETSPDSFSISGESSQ

[3] = molecular target: T3, CCR4 (Homo sapiens, UniProt P51679); assay: PathHunter eXpress CCR4 CHO-K1 β-Arrestin GPCR Assay, agonist format; type: cell-based
T3 construct: host or cells: CHO-K1
T3 sequence (P51679 1-360): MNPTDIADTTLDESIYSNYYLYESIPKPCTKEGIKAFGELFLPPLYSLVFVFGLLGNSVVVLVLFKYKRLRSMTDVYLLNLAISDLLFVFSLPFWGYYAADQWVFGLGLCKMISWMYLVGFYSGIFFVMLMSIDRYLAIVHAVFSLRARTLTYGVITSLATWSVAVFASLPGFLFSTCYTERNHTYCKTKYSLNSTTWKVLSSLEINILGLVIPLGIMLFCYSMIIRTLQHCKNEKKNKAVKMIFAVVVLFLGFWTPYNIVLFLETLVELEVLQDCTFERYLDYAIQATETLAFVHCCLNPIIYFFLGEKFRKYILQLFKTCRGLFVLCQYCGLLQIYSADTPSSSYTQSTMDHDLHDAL
Experimental: (§1) The aim of the present experiment was to analyze if if these peptides are functional using a Discoverx Assay, the Beta-Arrestin recruitment assay, to identify agonism or antagonism in the selected peptides.
(§2) Standard protocols used: • PathHunter® eXpress CCR4 CHO-K1 β-Arrestin GPCR Assay. 100 dp (1×96-well)
(§3) The experiment was carried using the manufacturer instructions.
The concentration was increased to test for response at high concentration.

[4] = molecular target: T3, CCR4; assay: PathHunter eXpress CCR4 CHO-K1 β-Arrestin GPCR Assay, antagonist format with CCL22; type: cell-based
Experimental: as §1, §2, §3
We therefore used the assay in an antagonist format, using 10 nM CCL22.
We repeated this experiment lowering the concentration of CCL22 from 10 nM to 1 nM to show a full inhibition curve.

Molecule: CRASAGQCNPDPKLC [67-24-00-N001, EphA3 peptide from cell-based screening, 6X6 loops]
- Ki (nM) [2]: No binding

Molecule: CYNEFGCEDFYDIC [Peptide 17-69-07]
- binding site on MT1-MMP [1]: binds to a neutral binding site; also recorded: binding site is distinct from the 17-88/17-98 binding site
- competition with other peptide families [1]: do not cross compete

B1: CCL22: the natural ligand of CCR4; CCL22 Discoverx (Cat no #92-1006) (protein, UniProt O00626 25-93, looked up)
C-C motif chemokine 22: GPYGANMEDSVCCRDYVRYRLPLRVVKHFYWTSDSCPRPGVVLLTFRDKEICADPRVPWVKMILNKLSQ
- EC50 [3]: 1.65 nM
- Raw Data ([3]; 0.006 nM): 37757
- Raw Data ([3]; 0.02 nM): 41715
- Raw Data ([3]; 0.06 nM): 57093
- Raw Data ([3]; 0.17 nM): 84488
- Raw Data ([3]; 0.51 nM): 111988
- Raw Data ([3]; 1.5 nM): 135687
- Raw Data ([3]; 4.6 nM): 172692
- Raw Data ([3]; 13.9 nM): 209362
- Raw Data ([3]; 41.7 nM): 230085
- Raw Data ([3]; 125 nM): 249665
- Raw Data ([3]; 375 nM): 234176
- Raw Data ([3]; high concentration, 0.001 uM): 16366
- Raw Data ([3]; high concentration, 0.003 uM): 23261
- Raw Data ([3]; high concentration, 0.008 uM): 29739
- Raw Data ([3]; high concentration, 0.023 uM): 47935
- Raw Data ([3]; high concentration, 0.1 uM): 67642
- Raw Data ([3]; high concentration, 0.2 uM): 88410
- Raw Data ([3]; high concentration, 0.6 uM): 101987
- Raw Data ([3]; high concentration, 1.9 uM): 118822
- Raw Data ([3]; high concentration, 5.6 uM): 118686
- Raw Data ([3]; high concentration, 16.7 uM): 130064
- Raw Data ([3]; high concentration, 50 uM): 122799
- Raw Data ([4]; 1 nM CCL22, 0.001 uM): 189754
- Raw Data ([4]; 1 nM CCL22, 0.003 uM): 206356
- Raw Data ([4]; 1 nM CCL22, 0.008 uM): 204398
- Raw Data ([4]; 1 nM CCL22, 0.023 uM): 218834
- Raw Data ([4]; 1 nM CCL22, 0.1 uM): 225758
- Raw Data ([4]; 1 nM CCL22, 0.2 uM): 245828
- Raw Data ([4]; 1 nM CCL22, 0.6 uM): 321207
- Raw Data ([4]; 1 nM CCL22, 1.9 uM): 425613
- Raw Data ([4]; 1 nM CCL22, 5.6 uM): 422771
- Raw Data ([4]; 1 nM CCL22, 16.7 uM): 433500
- Raw Data ([4]; 1 nM CCL22, 50 uM): 508067
- Raw Data ([4]; 10 nM CCL22, 0.001 uM): 178148
- Raw Data ([4]; 10 nM CCL22, 0.003 uM): 150444
- Raw Data ([4]; 10 nM CCL22, 0.008 uM): 136281
- Raw Data ([4]; 10 nM CCL22, 0.023 uM): 131693
- Raw Data ([4]; 10 nM CCL22, 0.1 uM): 151947
- Raw Data ([4]; 10 nM CCL22, 0.2 uM): 169306
- Raw Data ([4]; 10 nM CCL22, 0.6 uM): 173881
- Raw Data ([4]; 10 nM CCL22, 1.9 uM): 175875
- Raw Data ([4]; 10 nM CCL22, 5.6 uM): 212050
- Raw Data ([4]; 10 nM CCL22, 16.7 uM): 245795
- Raw Data ([4]; 10 nM CCL22, 50 uM): 223579

The next lines start with the values.

- binding site on MT1-MMP [1]: binds to the collagen binding site
- competition with other peptide families [1]: do not cross compete
Molecule: CPYSWETCLFGDYRC [Peptide 17-88, peptide ligand family from soluble selections against MT1-MMP hemopexin domain]

- competition with other peptide families [1]: competes with all the other families
Molecule: CQNRFPNCPINGFFC [Peptide 17-99]
